Target: IL-1b (human) (human, UniProt P01584 117-269)
Experiment: plate binding assay / ELISA with aptamer replacing primary antibody; dose-dependent; protein fixed in plate, n = 3; buffer, salt, pH and temperature not given in the material

Chain of IL-1b (human) (P01584 117-269): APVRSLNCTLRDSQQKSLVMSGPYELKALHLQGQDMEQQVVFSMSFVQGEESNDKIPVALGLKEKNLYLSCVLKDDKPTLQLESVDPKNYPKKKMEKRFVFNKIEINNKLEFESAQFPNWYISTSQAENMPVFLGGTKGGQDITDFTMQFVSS

B1: AptIL-1b (ssDNA)
DNA: GAAGTATAGCGCAATAAACTCACCTCCCAC
binding result: binds

Reference: publication PMC7312664, “Beneficial Effects of Inflammatory Cytokine-Targeting Aptamers in an Animal Model of Chronic Prostatitis”
